Here are results for four substances from PMC3322551.

By Kd is commonly meant the equilibrium constant for the complex coming apart. High values mean a looser complex, low ones a tighter complex. The term kon denotes a measure of how fast the partners come together. Low readings indicate slow association, high ones fast association.

The target in this experiment is porcine plasminogen (porcine). Description: SPR. For orientation: SPR reads the build-up and loss of mass on a sensor chip optically.

The substance “F3_(P146/232), recombinant C-terminal fragment of P146 (Mhp684) of Mycoplasma hyopneumoniae strain 232 (domain or fragment)” gave a Kd of 46 nM and a kon of 170000 M⁻¹ s⁻¹.
The like results for “F3_(P146/232ΔR), strain 232 F3_(P146) without its C-terminal arginine (domain or fragment)” were, in that order, 220 nM and 13000 M⁻¹ s⁻¹.
“F3_(P146/J), recombinant C-terminal fragment of P146 (MHJ_0663) of Mycoplasma hyopneumoniae strain J (domain or fragment)” gave a dissociation constant Kd of 39 nM and a kon of 46000 M⁻¹ s⁻¹.
In the case of “F3_(P146/JΔK), strain J F3_(P146) without its C-terminal lysine (domain or fragment)”, the Kd is 210 nM and the kon was 13000 M⁻¹ s⁻¹.
